Measurements: publication PMC10397247

What was measured:
Assay in all cases: two-hybrid library CCmax;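 note: natural log of median RNA to DNA barcode read ratio; higher means stronger binding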
[1] = biological target: T1, 4H710-AA; details: mean of both orientations
T1 chain: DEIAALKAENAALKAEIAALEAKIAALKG

[2] = biological target: T2, 4H485-AA; details: mean of both orientations
T2 chain: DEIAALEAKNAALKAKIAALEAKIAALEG

[3] = biological target: T3, 4H3865-AA; details: mean of both orientations
T3 chain: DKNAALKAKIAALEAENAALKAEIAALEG

[4] = biological target: T4, 4H850-AA; details: mean of both orientations
T4 chain: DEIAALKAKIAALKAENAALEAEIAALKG

[5] = biological target: T5, 4H3016-AA
T5 chain: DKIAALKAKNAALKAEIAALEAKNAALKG

[6] = biological target: T6, 4H94-AA; details: mean of both orientations
T6 chain: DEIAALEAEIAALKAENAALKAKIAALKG

[7] = biological target: T7, 4H310-AA; details: mean of both orientations
T7 chain: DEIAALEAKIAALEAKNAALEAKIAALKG

[8] = biological target: T8, 4H797-AA; details: mean of both orientations
T8 chain: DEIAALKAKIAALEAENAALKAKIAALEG

[9] = biological target: T9, O5-AA; details: mean of both orientations
T9 chain: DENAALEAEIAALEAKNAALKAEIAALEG

[10] = biological target: T10, 4H3395-AA; details: mean of both orientations
T10 chain: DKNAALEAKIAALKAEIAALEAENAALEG

[11] = biological target: T11, 4H3590-AA; details: mean of both orientations
T11 chain: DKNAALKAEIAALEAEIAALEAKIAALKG

[12] = biological target: T12, O8-AA; details: mean of both orientations
T12 chain: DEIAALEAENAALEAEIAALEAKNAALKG

[13] = biological target: T13, O7-AA; details: mean of both orientations
T13 chain: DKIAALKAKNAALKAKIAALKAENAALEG

[14] = biological target: T14, 4H3165-AA; details: mean of both orientations
T14 chain: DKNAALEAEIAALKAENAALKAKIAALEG

[15] = biological target: T15, 4H536-AA; details: mean of both orientations
T15 chain: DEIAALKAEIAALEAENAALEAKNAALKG

[16] = biological target: T16, O1-AA; details: mean of both orientations
T16 chain: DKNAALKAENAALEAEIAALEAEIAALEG

[17] = biological target: T17, O13-AA; details: mean of both orientations
T17 chain: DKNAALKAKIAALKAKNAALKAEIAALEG

[18] = biological target: T18, 4H3410-AA; details: mean of both orientations
T18 chain: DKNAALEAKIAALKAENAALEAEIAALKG

[19] = biological target: T19, O14-AA; details: mean of both orientations
T19 chain: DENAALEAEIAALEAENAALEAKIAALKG

[20] = biological target: T20, O11-AA; details: mean of both orientations
T20 chain: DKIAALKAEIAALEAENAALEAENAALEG

[21] = biological target: T21, P9-AA; details: mean of both orientations
T21 chain: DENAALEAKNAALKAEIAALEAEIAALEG

[22] = biological target: T22, 4H570-AA; details: mean of both orientations
T22 chain: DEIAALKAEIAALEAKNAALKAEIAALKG

[23] = biological target: T23, 4H384-AA; details: mean of both orientations
T23 chain: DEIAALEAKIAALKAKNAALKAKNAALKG

[24] = biological target: T24, 4H745-AA; details: mean of both orientations
T24 chain: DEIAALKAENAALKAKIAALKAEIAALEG

[25] = biological target: T25, 4H3753-AA; details: mean of both orientations
T25 chain: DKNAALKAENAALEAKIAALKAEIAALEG

[26] = biological target: T26, 4H891-AA; details: mean of both orientations
T26 chain: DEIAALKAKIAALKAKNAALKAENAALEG

[27] = biological target: T27, 4H629-AA; details: mean of both orientations
T27 chain: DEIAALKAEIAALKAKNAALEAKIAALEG

[28] = biological target: T28, O2-AA; details: mean of both orientations
T28 chain: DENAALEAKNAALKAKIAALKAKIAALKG

[29] = biological target: T29, 4H909-AA; details: mean of both orientations
T29 chain: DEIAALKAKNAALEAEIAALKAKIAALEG

[30] = biological target: T30, 4H3697-AA; details: mean of both orientations
T30 chain: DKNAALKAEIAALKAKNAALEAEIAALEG

[31] = biological target: T31, O3-AA; details: mean of both orientations
T31 chain: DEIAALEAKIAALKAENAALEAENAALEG

[32] = biological target: T32, 4H3381-AA; details: mean of both orientations
T32 chain: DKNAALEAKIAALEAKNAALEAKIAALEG

[33] = biological target: T33, 4H458-AA; details: mean of both orientations
T33 chain: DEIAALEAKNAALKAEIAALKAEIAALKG

[34] = biological target: T34, 4H930-AA; details: mean of both orientations
T34 chain: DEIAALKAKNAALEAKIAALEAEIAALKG

[35] = biological target: T35, P10-AA; details: mean of both orientations
T35 chain: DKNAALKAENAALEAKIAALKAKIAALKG

[36] = biological target: T36, O6-AA; details: mean of both orientations
T36 chain: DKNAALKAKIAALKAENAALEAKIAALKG

[37] = biological target: T37, 4H3130-AA; details: mean of both orientations
T37 chain: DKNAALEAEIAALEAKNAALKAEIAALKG

[38] = biological target: T38, 4H3120-AA; details: mean of both orientations
T38 chain: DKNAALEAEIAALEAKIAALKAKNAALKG

[39] = biological target: T39, O4-AA; details: mean of both orientations
T39 chain: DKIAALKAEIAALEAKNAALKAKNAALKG

DKIAALKAKNAALKAEIAALEAKNAALKG [4H3016-AA] was tested, and the interaction score [1] was -1.35, the interaction score [2] was -0.786 and the interaction score [3] was -1.38. It also gave an interaction score [4] of -0.436, an interaction score [5] of -1.56 and an interaction score [6] of -0.745. The interaction score [7] was -0.901, the interaction score [8] was -1.65 and the interaction score [9] was -0.896. It also gave an interaction score [10] of -1.1, an interaction score [11] of 0.669 and an interaction score [12] of 1.56. For the same binder, the interaction score [13] was 0.0246, the interaction score [14] was -1.17 and the interaction score [15] was -0.944. It also gave an interaction score [16] of -0.276, an interaction score [17] of -1.87 and an interaction score [18] of 0.759. It also gave an interaction score [19] of 2, an interaction score [20] of -1.4 and an interaction score [21] of -0.637. For the same binder, the interaction score [22] was -1.4, the interaction score [23] was -1.89 and the interaction score [24] was 0.997. For the same binder, the interaction score [25] was 0.667, the interaction score [26] was -1.63 and the interaction score [27] was -1.28. For the same binder, the interaction score [28] was -1.29, the interaction score [29] was -0.857 and the interaction score [30] was -0.432. For the same binder, the interaction score [31] was -0.74, the interaction score [32] was -1.11 and the interaction score [33] was -1.13. The interaction score [34] was -1.32, the interaction score [35] was -0.503 and the interaction score [36] was 0.964. It also gave an interaction score [37] of -0.405, an interaction score [38] of -1.33 and an interaction score [39] of -1.64.
